Experimental data taken from patent US20220380463A1 (Adimab, published 2022).
Numbering of substitutions follows the chain as printed.

T1: Cynomolgus CD3εδ Fc heterodimer (Cy CD3ε Fc / CD3δ Fc-HIS) (cynomolgus, UniProt Q95LI8 22-100)
T1 chain 1: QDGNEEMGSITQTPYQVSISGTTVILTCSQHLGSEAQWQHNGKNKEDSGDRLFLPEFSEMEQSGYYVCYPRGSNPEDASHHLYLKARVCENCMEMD
T1 chain 2: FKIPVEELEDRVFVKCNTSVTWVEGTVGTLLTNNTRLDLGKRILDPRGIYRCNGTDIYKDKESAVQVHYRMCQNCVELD

B1: SAD10319_P04_G11 (ADI-48641) (antibody, V domains shown)
VH: QVQLVQSGAEVKKPGASVKVYCKASGYTFTTYEMHWVRQAPGQRLEWMGSINAGDANTKYSQKFQGRVTITRDTSASTAYMELSSLRSEDTAVYYCARDAYHHYFYDVWGQGTLVTVSS
VL: DIVMTQSPDSLAVSLGERATINCKSSQSLLNARTGKNYLAWYQQKPGQPPKLLIYWASTRESGVPDRFSGSGSGTDFTLTISSLQAEDVAVYYCKQSYSRRTFGGGTKVEIK
notes: IgG; also called Ab39
B2: SAD10320_P01_C03 (ADI-57355) (antibody, V domains shown)
VH: QVQLVQSGAEVKKPGASVKVSCKASGFNIKDYYMHWVRQAPGQRLEWMGWIDLENANTIYDAKFQGRVTITRDTSASTAYMELSSLRSEDTAVYYCARDAYGHSFYDVWGQGTLVTVSS
VL: B1 VL with S99H, R100W
notes: IgG; also called Ab62
B3: SAD10320_P02_A05 (ADI-57363) (antibody, V domains shown)
VH: B2 VH with S104M
VL: B1 VL with T34P, S99H, R100M
B4: SAD10319_P04_D12 (ADI-57342) (antibody, V domains shown)
VH: B1 VH with Y21S, T31S, E33A, E46D, S50Y, A53P, G54D, D55T, A56G, N57D
VL: B1 VL
notes: IgG; also called Ab42
B5: SAD10320_P03_B07 (ADI-57373) (antibody, V domains shown)
VH: B2 VH with E46A, S104D
VL: B1 VL
notes: IgG; also called Ab90
B6: SAD10320_P04_G10 (ADI-48658) (antibody, V domains shown)
VH: B2 VH with S104D
VL: B1 VL
notes: IgG; also called Ab108
B7: SAD10320_P04_D10 (ADI-57384) (antibody, V domains shown)
VH: B2 VH with K23E, L45P, S104V
VL: B1 VL with S99L, R100H
notes: IgG; also called Ab105
B8: SAD10320_P01_E03 (ADI-57357) (antibody, V domains shown)
VH: B2 VH with W47R, S104G
VL: B1 VL with S99R, R100H
notes: IgG; also called Ab64
B9: SAD10320_P03_F09 (ADI-48656) (antibody, V domains shown)
VH: B2 VH with S104D
VL: B1 VL with S99H
notes: IgG; also called Ab101
B10: SAD10319_P04_C12 (ADI-57341) (antibody, V domains shown)
VH: QVQLVQSGAEVKKPGASVKVSCKASGYTFTAYDMHWVRQAPGQRLERMGWIDPITGNTKYSQKFQGRVTITRDTSASTAYMELSSLRSEDTAVYYCAHDAYGHYFYDVWGQGTLVTVSS
VL: B1 VL
notes: IgG; also called Ab41
B11: SAD10320_P01_H01 (ADI-57347) (antibody, V domains shown)
VH: B2 VH with E46D, S104N
VL: B1 VL with S99H, R100K
notes: IgG; also called Ab52
B12: SAD10320_P01_C02 (ADI-57348) (antibody, V domains shown)
VH: B2 VH with E46D, Y101G, G102H, H103R, S104Y
VL: B1 VL with T34P, K95G, Q96H
notes: IgG; also called Ab54
B13: SAD10320_P03_E07 (ADI-57374) (antibody, V domains shown)
VH: B2 VH with Y101V, G102H, H103R, S104Y
VL: B1 VL with S99H, R100P
notes: IgG; also called Ab92
B14: SAD10320_P01_G01 (ADI-57346) (antibody, V domains shown)
VH: B2 VH
VL: B1 VL with S99H, R100L
notes: IgG; also called Ab51
B15: SAD10320_P01_G02 (ADI-57351) (antibody, V domains shown)
VH: B2 VH with E46Q
VL: B1 VL with S99H, R100E
notes: IgG; also called Ab57
B16: SAD10320_P01_H03 (ADI-57359) (antibody, V domains shown)
VH: B2 VH with L45P, Y101A, G102H, H103R, S104Y
VL: B1 VL with T34P, G35R, Y98H, S99D
notes: IgG; also called Ab67
B17: SAD10319_P04_F12 (ADI-57343) (antibody, V domains shown)
VH: QVQLVQSGAEVKKPGASVKVSCKASGYTFNDYAMHWVRQAPGQRLDWMGWINPDTGNTNYSQKFQGRVTITRDTSASTAYMELSSLRSEDTAVYYCARDHYGRYFYDHWGQGTLVTVSS
VL: B1 VL
notes: IgG; also called Ab44
B18: SAD10319_P04_E12 (ADI-48642) (antibody, V domains shown)
VH: QVQLVQSGAEVKKPGASVKVSCKASGYTFTSYPMHWVRQAPGQRLEWMGWIDAGTGLTTYSQKFQGRVTITRDTSASTAYMELSSLRSEDTAVYYCARDHYHRYFYDMWGQGTLVTVSS
VL: B1 VL
notes: IgG; also called Ab43
B19: SAD10320_P02_A04 (ADI-57360) (antibody, V domains shown)
VH: B2 VH with S104A
VL: B1 VL with Y98L, S99H
notes: IgG; also called Ab68
B20: SAD10320_P03_H08 (ADI-57379) (antibody, V domains shown)
VH: B2 VH with S104V
VL: B1 VL with R33S, G35A, S99R, R100H
notes: IgG; also called Ab97
B21: SAD10320_P03_D08 (ADI-57377) (antibody, V domains shown)
VH: B2 VH with S104Q
VL: B1 VL with S99H, R100T
notes: IgG; also called Ab95
B22: SAD10320_P01_F01 (ADI-57345) (antibody, V domains shown)
VH: B2 VH with L45P, E46A, Y101S, G102H, H103R, S104Y
VL: B1 VL with K95G, Q96H
notes: IgG; also called Ab50
B23: SAD10320_P02_E05 (ADI-57366) (antibody, V domains shown)
VH: B2 VH with A100M, Y101H, H103R, S104Y
VL: B1 VL with Y98E, S99H
notes: IgG; also called Ab78
B24: SAD10320_P02_D06 (ADI-57368) (antibody, V domains shown)
VH: B2 VH with L45P, E46A, S104G
VL: B1 VL with S99G, R100H
notes: IgG; also called Ab85
B25: SAD10320_P02_A06 (ADI-57367) (antibody, V domains shown)
VH: B2 VH with E46P, Y101H, G102E, H103R, S104Y
VL: B1 VL with Y98H, S99L
notes: IgG; also called Ab82
B26: SAD10320_P02_B05 (ADI-57364) (antibody, V domains shown)
VH: B2 VH with S104N
VL: B1 VL with S99T, R100H
notes: IgG; also called Ab75
B27: SAD10320_P04_F10 (ADI-57385) (antibody, V domains shown)
VH: B2 VH with R44T, E46D, H103R, S104N, F105H
VL: B1 VL with T34P, S99L, R100H
notes: IgG; also called Ab107
B28: SAD10320_P02_C05 (ADI-57365) (antibody, V domains shown)
VH: B2 VH with F27S
VL: B1 VL with S99H, R100G
notes: IgG; also called Ab76
B29: SAD10320_P04_C10 (ADI-57383) (antibody, V domains shown)
VH: B2 VH with S104A
VL: B1 VL with S99H, R100Q
notes: IgG; also called Ab104
B30: SAD10320_P03_C08 (ADI-57376) (antibody, V domains shown)
VH: B2 VH with K23E, R44T, E46A, S104V
VL: B1 VL with S99L, R100H
notes: IgG; also called Ab94
B31: SAD10320_P03_F08 (ADI-57378) (antibody, V domains shown)
VH: B2 VH with S104D
VL: B1 VL with T34P
notes: IgG; also called Ab96
B32: SAD10320_P03_C09 (ADI-57381) (antibody, V domains shown)
VH: B2 VH with K23E, S104V
VL: B1 VL with S99L, R100H
notes: IgG; also called Ab99
B33: SAD10320_P02_B04 (ADI-57273) (antibody, V domains shown)
VH: B2 VH with W47R, S104G
VL: B1 VL with S99G, R100H
notes: IgG; ADI-57273 is also printed for Ab114; also called Ab70
B34: SAD10319_P04_H12 (ADI-57344) (antibody, V domains shown)
VH: B1 VH with Y21S, T31S, Y32D, E33H, D55T, A56G, N57A, H102G, V108H
VL: B1 VL
notes: IgG; also called Ab45
B35: SAD10320_P01_G03 (ADI-57358) (antibody, V domains shown)
VH: B2 VH with L45P
VL: B1 VL with S99H, R100W
notes: IgG; also called Ab66
B36: SAD10320_P01_D03 (ADI-57356) (antibody, V domains shown)
VH: B2 VH with N28D, S104A
VL: B1 VL with S99H, R100G
notes: IgG; also called Ab63
B37: SAD10320_P02_E06 (ADI-57369) (antibody, V domains shown)
VH: B2 VH with G8E, E46Q, S104G
VL: B1 VL with T34P
notes: IgG; also called Ab86
B38: SAD10320_P01_H02 (ADI-57352) (antibody, V domains shown)
VH: B2 VH
VL: B1 VL with Y98M, S99H
B39: SAD10320_P04_E10 (ADI-48657) (antibody, V domains shown)
VH: B2 VH with L45P, S104D
VL: B1 VL
notes: IgG; also called Ab106
B40: SAD10320_P01_F02 (ADI-57350) (antibody, V domains shown)
VH: B2 VH with W47R, S104T
VL: B1 VL with S99W, R100H
notes: IgG; also called Ab56
B41: SAD10320_P04_A10 (ADI-57382) (antibody, V domains shown)
VH: B2 VH with E46D, S104D
VL: B1 VL
notes: IgG; also called Ab103
B42: SAD10320_P02_H06 (ADI-57372) (antibody, V domains shown)
VH: B2 VH with H103R, S104N, F105H
VL: B1 VL with N37S, S99V, R100H
notes: IgG; also called Ab89
B43: SAD10320_P02_H04 (ADI-57362) (antibody, V domains shown)
VH: B2 VH with E46D, S104L
VL: B1 VL with Y98H, S99M
notes: IgG; also called Ab73
B44: SAD10320_P03_A09 (ADI-57380) (antibody, V domains shown)
VH: B2 VH with S104V
VL: B1 VL with Y98S, S99H
notes: IgG; also called Ab98

Target: T1, Cynomolgus CD3εδ Fc heterodimer (Cy …)
Experiment: BLI (Octet), IgG on AHC sensor, pH 6.0

| koff | Binder |
| --- | --- |
| 0.00317 s⁻¹ | B1 |
| 0.0195 s⁻¹ | B2 |
| 0.0168 s⁻¹ | B3 |
| 0.012 s⁻¹ | B4 |
| 0.00224 s⁻¹ | B5 |
| 0.0189 s⁻¹ | B6 |
| 0.0171 s⁻¹ | B7 |
| 0.0223 s⁻¹ | B8 |
| 0.00719 s⁻¹ | B9 |
| 0.0196 s⁻¹ | B10 |
| 0.0207 s⁻¹ | B11 |
| 0.00277 s⁻¹ | B12 |
| 0.00699 s⁻¹ | B13 |
| 0.0144 s⁻¹ | B14 |
| 0.0197 s⁻¹ | B15 |
| 0.00291 s⁻¹ | B16 |
| 0.0162 s⁻¹ | B17 |
| 0.00307 s⁻¹ | B18 |
| 0.0182 s⁻¹ | B19 |
| 0.015 s⁻¹ | B20 |
| 0.00194 s⁻¹ | B21 |
| 0.00642 s⁻¹ | B22 |

| koff | Binder |
| --- | --- |
| 0.00318 s⁻¹ | B23 |
| 0.00621 s⁻¹ | B24 |
| 0.00264 s⁻¹ | B25 |
| 0.00269 s⁻¹ | B26 |
| 0.00239 s⁻¹ | B27 |
| 0.0207 s⁻¹ | B28 |
| 0.0187 s⁻¹ | B29 |
| 0.0152 s⁻¹ | B30 |
| 0.00268 s⁻¹ | B31 |
| 0.0051 s⁻¹ | B32 |
| 0.0176 s⁻¹ | B33 |
| 0.0047 s⁻¹ | B34 |
| 0.0215 s⁻¹ | B35 |
| 0.00263 s⁻¹ | B36 |
| 0.0303 s⁻¹ | B37 |
| 0.00334 s⁻¹ | B38 |
| 0.00258 s⁻¹ | B39 |
| 0.0194 s⁻¹ | B40 |
| 0.0144 s⁻¹ | B41 |
| 0.00281 s⁻¹ | B42 |
| 0.0278 s⁻¹ | B43 |
| 0.0029 s⁻¹ | B44 |
